Target: T1, recombinant spike S1S2 extracellular domain of SARS-CoV-2 (S1S2ECD-His) (SARS-CoV-2, UniProt P0DTC2 14-1213, IRDye 800CW NHS ester label (as the probe of the peptide array only))
T1 construct: also called SARS-CoV-2 spike protein; S1S2 protein
Assay: BLI; S1S2ECD-His amine-coupled on AR2G sensors (10 µg/mL in 10 mM sodium acetate pH 4); rhRod in solution, 8 concentrations a run; Octet Red384; KD by non-linear regression of the steady-state response
Conditions: both partners purified

B1: recombinant rod domain of vimentin (rhRod) (domain or fragment)
chain: not shown
modifications: IRDye 800CW NHS ester label (as the probe of the peptide array only)
notes: also called rhRod-1 to rhRod-7 (lots)
Kd: 163 nM

From publication PMC10931652, “Recombinant Rod Domain of Vimentin Reduces SARS-CoV-2 Viral Replication by Blocking Spike Protein–ACE2 Interactions” (International Journal of Molecular Sciences, 2024)
